From paper PMC3783163, “Attachment site recognition and regulation of directionality by the serine integrases”

T1: LI integrase CTD (Listeria innocua prophage (CLIP 11262; …, UniProt Q928V6 133-452)
T1 sequence: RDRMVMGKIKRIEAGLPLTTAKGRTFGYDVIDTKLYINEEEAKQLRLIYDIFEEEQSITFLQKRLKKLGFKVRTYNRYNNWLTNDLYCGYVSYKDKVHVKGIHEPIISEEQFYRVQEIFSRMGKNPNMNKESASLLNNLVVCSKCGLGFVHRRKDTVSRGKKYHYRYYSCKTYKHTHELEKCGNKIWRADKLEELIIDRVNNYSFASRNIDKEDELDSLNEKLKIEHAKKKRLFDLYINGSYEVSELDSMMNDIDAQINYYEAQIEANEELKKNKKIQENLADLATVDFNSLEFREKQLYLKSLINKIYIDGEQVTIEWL


What was measured:
[1] = tested on: LI integrase WT (Listeria innocua prophage (CLIP 11262; cloned from ATCC BAA-680D genomic DNA)); assay: EMSA; conditions: EMSA: 20 mM Tris-HCl pH 7.4, 150 mM KCl, 2 mM DTT, 25 ug/ml BSA, 25 ug/ml salmon sperm DNA, 5% glycerol, ~1 nM DNA, 30 min at 30 C; 6% PAGE Tris-glycine pH …
[2] = tested on: LI integrase ΔZD (Listeria innocua prophage (CLIP 11262; cloned from ATCC BAA-680D genomic DNA)); assay: EMSA; conditions: EMSA: 20 mM Tris-HCl pH 7.4, 150 mM KCl, 2 mM DTT, 25 ug/ml BSA, 25 ug/ml salmon sperm DNA, 5% glycerol, ~1 nM DNA, 30 min at 30 C; 6% PAGE Tris-glycine pH …
[3] = target: T1, LI integrase CTD; assay: crystal structure (3.2 A); Zn2+ bound; 13 mM CaCl2 in drop; EMSA: 20 mM Tris-HCl pH 7.4, 150 mM KCl, 2 mM DTT, 25 ug/ml BSA, 25 ug/ml salmon sperm DNA, 5% glycerol, ~1 nM DNA, 30 min at 30 C; 6% PAGE Tris-glycine pH 8.3; conditions: protein: recombinant; tags: C-terminal His6 (LEH6); 5' overhangs 1 nt (G top, C bottom), 25 bp duplex

Molecule | Kd [1] | binding signal (fold weaker than WT) [2] | binding result [3]
LI attB 119-bp probe | 0.02 µM | 25 | –
LI attP 119-bp probe | 0.02 µM | 25 | –
A118 attP P-arm half-site (crystal) (dsDNA) DNA 1: GTTTAGTTCCTCGTTTTCTCTCGTTG DNA 2: CCAACGAGAGAAAACGAGGAACTAAA | – | – | binds
